This passage reports Kd results from PMC8519809 (Cell Reports, 2021).

The test deals with SARS-CoV-1 S-2P protein (SARS-CoV-1 (human SARS coronavirus); …, stabilised). The experiment in a line: SPR.

B1: Fab22 (Fab, V domains shown)
VH: EVQLQQPGPVLVKPGASVRMSCKASGYRITDNFMNWVKQSHGKSLEWIGIINPYNGGTKYNQKFKGKATLTVDTSSSTAYMELNSLTSEDSAVYYCTRVRGNDYHGRAMDYWGQGTSVTVSS
VL: DVVLTQTPLSLPVNIGDQASISCKSTKSLLNRDGFTFLDWYLQKPGQSPQLLIYLVSNRFSGVPDRFSGSGSGTDFTLKISRVEAEDLGVYYCFQSNYLFTFGSGTKLEIK
The term Kd denotes the free concentration of one partner at which half of the binding sites on the other are occupied at equilibrium, for simple one-to-one binding. Lower therefore signals tighter binding. On to B1, for which the equilibrium dissociation constant (Kd) was 7.2 nM.
